The results in this text go back to patent publication US20100061991A1.

The assay concerns the target human DCIR (dendritic cell immunoreceptor), full length, isotype 1 (human) (UniProt Q9UMR7). Nature of the assay: cell-based or functional assay.
Chain of UniProt Q9UMR7 (Q9UMR7 whole entry): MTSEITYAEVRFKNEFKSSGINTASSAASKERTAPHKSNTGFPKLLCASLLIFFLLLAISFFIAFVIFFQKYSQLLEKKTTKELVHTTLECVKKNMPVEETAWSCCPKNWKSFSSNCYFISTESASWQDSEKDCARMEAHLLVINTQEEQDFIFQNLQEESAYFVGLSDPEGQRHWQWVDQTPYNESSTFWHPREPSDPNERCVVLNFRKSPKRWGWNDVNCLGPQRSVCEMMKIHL

For the substance “HIV-1 NL4-3balenv virions (R5-tropic; NL4-3 with the env gene of HIV-1 Bal)”, the reduction in virus transfer from IM-MDDC to CD4+ T cells after DCIR-specific siRNA, in absence of EFV stood at 30% and the reduction in virus transfer from IM-MDDC to CD4+ T cells after DCIR-specific siRNA, in cells treated with EFV is 40%.
